This is an account of results in patent US20250026813A1 (published 2025).

Positions count from the first letter of the chain named.

The labels stand for the following.
B1: IMPI-024 (antibody, V domains shown)
VH: EVQLVQSGAEVKKPGESLKISCKGSGYSFTSYWIGWVRQMPGKGLEWMGIIYPGDSDTRYSPSFQGQVTISADKSISTAYLQWSSLKASDTAMYYCVRSYNWNYFDYWGQGTLVTVSS
VL: AIQLTQSPSSLSASVGDRVTITCRASQGISSGLAWYQQKAGKAPKLLIYDVSSLESGVPSRFSGSGSGTDFTLTISSLQPEDFATYYCQQFLSYPWTFGQGTKVEIK
B2: IMPI-054 (antibody, V domains shown)
VH: EVQLVESGGGLIQPGGSLRLSCAASGLTVSSNYMSWVRQAPGKGLEWVSIIYSGGSTYYADSVKGRFTISRDNSKNTLYLQMNSLRAEDTAVYYCARLGGYYYYGMDVWGQGTTVTVSS
VL: DIQMTQSPSSLSASVGERVTITCQASQDIRNYLNWYQKKPGKAPKLLIYDSSNLETGVPSRFSGSGSGTDFTFTISSLQPEDIATYYCQQYDNLPITFGQGTRLEIK
B3: IMPI-042 (antibody, V domains shown)
VH: B2 VH
VL: B2 VL with S65G
B4: IMPI-029 (antibody, V domains shown)
VH: EVQLVESGGGLIQPGGSLRLSCAASGVTVSSNYMNWVRQAPGKGLEWVSVIYSGGSTYYADSVKGRFTISRDNSKNTLFLQMNSLRAEDSAVYYCARDLGPYGVDVWGQGTTVTVSS
VL: DIQLTQSPSFLSASVGDRVTITCWASQGISSYLAWYQQKPGKAPKLLIYAASTLQSGVPSRFSGSGSGTEFTLTISSLQPEDFATYYCQELNSYPLTFGQGTRLEIK
B5: IMPI-060 (antibody, V domains shown)
VH: B4 VH with N35S, Y58F, F79Y, S90T, G100S, P101Y, V104M
VL: B4 VL with R61K, E90Q, L96S, T97S, R103K
B6: IMPI-005 (antibody, V domains shown)
VH: B4 VH with V27F
VL: B4 VL
B7: IMPI-021 (antibody, V domains shown)
VH: B4 VH with N35S, Y58F, F79Y, S90T, G100S, P101Y, V104M
VL: B4 VL with R61K, E90Q, L96C, T97S, R103K
B8: IMPI-006 (antibody, V domains shown)
VH: QLQLQESGPGLVKPSETLSLTCTVSGGSISNSNYYWGWIRQPPGKGLEWIGSIYYSGRTYYNPSLKSRVTISVDTSKNQFSLKLSSVTAADTAVYYCARMGLLWFGEFYGMDVWGQGTTVTVSS
VL: DIQMTQSPSSLSASVGDRVTITCRASQGISSWLAWYQQKPEKAPKSLIYDASSLQRGVPSRFSGSGSGTDFTLTISSLQPEDFASYYCQQYNSYPLTFGGGTRVEIK
B9: IMPI-059 (antibody, V domains shown)
VH: EVQLVESGGGLIQPGGSLRLSCAASGFTVSSIYMSWVRQAPGKGLEWVSIIYSRGSTDYADSVKGRFTISRDISKNTLYLQMNSLRAEDTAVYYCARDGTMVRGVHAFDIWGQGTMVTVSS
VL: DIQMTQSPPSLSASIGDRVTITCQASQDISNYLNWYQQKPGKAPKLLIYDASNLETGVPSRFSGSGSGTDFTLTISNLQPEDIVTYYCQQYDNLPSSFGQGTKLEIK
B10: IMPI-024 (antibody, V domains shown)
VH: B1 VH
VL: B1 VL
B11: IMPI-027 (antibody, V domains shown)
VH: QVQLQESGPGLVKPSQTLSLTCTVSGGSISSYGYYWNWIRQHPGKGLEWIGYIYYSGSTYYNPSLKSRVTISVDTSKNQLSLRLNSVSAADTAVYYCARDFGGNSNYFDYWGQGTLVTVSS
VL: B1 VL with A25T, G32A, A40P, V51A, L92N, W96L, Q100G
B12: IMPI-068 (antibody, V domains shown)
VH: QVQLVESGGDVVQPGRSLRLSCAASGFTFSRYGMHWVRQAPGKGLEWVAVISYDGSDKYYADSVKGRFTISRDNSKNTLYLQMNSLRAEDTAVYYCAKQLPLYYYYYGMDVWGQGTTVTVSS
VL: B1 VL with G32A, A40P, K45N, V51A, L92N, S93I, W96H, Q100P, E105D
B13: IMPI-033 (antibody, V domains shown)
VH: B11 VH with N37S, I71M
VL: B1 VL with G32A, A40P, K45N, V51A, L92N, Y94S, W96L, Q100G
B14: IMPI-038 (antibody, V domains shown)
VH: QVQLVESGGGVVQPGRSLRLSCAASGFTFSSYGMHWVRQAPGKGLEWVAVISYDGSDKYYADSVKGRFTISRDNSKNTLYLQMNSLRAEDTAVYYCAKTVAGYYYYYYGMDVWGQGTTVTVSS
VL: DIQMTQSPSSVSASVGDRVTVTCRASQDISSWLAWFQQKPGKAPKFLIYDASNLENGVPSRFSGSGSGTDFTLTISSLQPEDFATYYCQQAKSFPWTFGQGTKVEIN
B15: IMPI-055 (antibody, V domains shown)
VH: QVQLVQSGAEVKKPGASVKVSCKASGYTFTSYDINWVRQATGQGLEWMGWMNPNSGNTGYAQKFQGRVTMTRDTSINTAYMELSSLRSEDTAVYFCARGGRYCSDVTCYSGEPFDYWGQGTLVTVSS
VL: EIMLTQSPDFQSVTPKEKVTITCRASQSIGSSLHWYQQKPDQSPKLLIKFASQSISGVPSRFSGSGSGTDFTLTINSLEAEDAAAYYCHQSSSLPHTFGPGTKVEIK
B16: IMPI-054 (antibody, V domains shown)
VH: B2 VH
VL: B2 VL
B17: IMPI-042 (antibody, V domains shown)
VH: B2 VH
VL: B2 VL with S65G
B18: IMPI-047 (antibody, V domains shown)
VH: B4 VH with V27F, F79Y, A87T, S90T, G100V, P101A, V104M
VL: B4 VL with L46V, E90L, Y94N, Q100G, R103K, L104V
B19: IMPI-037 (antibody, V domains shown)
VH: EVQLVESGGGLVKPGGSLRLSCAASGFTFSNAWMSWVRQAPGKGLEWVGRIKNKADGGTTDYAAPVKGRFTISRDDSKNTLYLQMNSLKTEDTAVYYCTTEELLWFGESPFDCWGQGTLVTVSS
VL: B4 VL with S30N, A84T, E90Q, L91F, S93D, L96R, Q100P, R103K, L104V
B20: IMPI-017 (antibody, V domains shown)
VH: B4 VH with S25A, V27L, A40V, F79Y, S90T, P101T, Y102L, V104M
VL: B4 VL with S31T, E90Q, P95L, L96P, R103K, L104V
B21: IMPI-029 (antibody, V domains shown)
VH: B4 VH
VL: B4 VL
B22: IMPI-060 (antibody, V domains shown)
VH: B4 VH with N35S, Y58F, F79Y, S90T, G100S, P101Y, V104M
VL: B4 VL with R61K, E90Q, L96S, T97S, R103K
B23: IMPI-005 (antibody, V domains shown)
VH: B4 VH with V27F
VL: B4 VL
B24: IMPI-021 (antibody, V domains shown)
VH: B4 VH with N35S, Y58F, F79Y, S90T, G100S, P101Y, V104M
VL: B4 VL with R61K, E90Q, L96C, T97S, R103K
B25: IMPI-056 (antibody, V domains shown)
VH: B4 VH with V27L, G44K, Y58F, K64R
VL: B4 VL with E90Q

The target of the first test is T1, S2 subunit of the SARS-CoV-2 spike protein (Sino Biological 40590-V08B), His tag (SARS-CoV-2, UniProt P0DTC2 686-1213).
T1 construct: domain: S2 subunit
As to B1, the “HTRF deltaF” value was -15.4 deltaF.
For the molecule B2, the “HTRF deltaF” value was 15.8 deltaF.
The same measure, in the same setting: next, B3: 1.6 deltaF; B4: 4.1 deltaF; B5: 6 deltaF.
Regarding B6, the “HTRF deltaF” value is -1.8 deltaF.
Take B7: the “HTRF deltaF” value was -0.3 deltaF.

A further test has as its target SARS-CoV-2 spike protein receptor binding domain (isolated RBD) (SARS-CoV-2, UniProt P0DTC2 319-541).
Take B8: the Kd came to 0.88 nM, the off-rate constant (koff) was determined as 8.19 s⁻¹ and the kon was 9.3e+09 M⁻¹ s⁻¹.
The like results for B9 were, in that order, 0.646 nM, 0.00426 s⁻¹ and 6.59e+06 M⁻¹ s⁻¹.
In turn, B10 gave a Kd of 0.633 nM, a koff of 0.00134 s⁻¹ and a kon of 2.12e+06 M⁻¹ s⁻¹.
Turning to B11, the Kd was determined as 4.06 nM, the koff turned out to be 26.3 s⁻¹ and the kon came out at 6.48e+09 M⁻¹ s⁻¹.
Molecule B12 showed a Kd of 40.5 nM.
B13 displayed a Kd of 3.37 nM, a koff of 0.00741 s⁻¹ and a kon of 2.2e+06 M⁻¹ s⁻¹.
Consider B14, for which the Kd was found to be 2.92 nM.
Consider B15, for which the Kd was 0.959 nM, the koff stood at 0.00264 s⁻¹ and the kon came out at 2.75e+06 M⁻¹ s⁻¹.
B16 showed a Kd of 1.11 nM, a koff of 0.000627 s⁻¹ and a kon of 564000 M⁻¹ s⁻¹.
In turn, B17 returned a Kd of 1.15 nM, a koff of 0.000617 s⁻¹ and a kon of 536000 M⁻¹ s⁻¹.
B18 had a Kd of 2.38 nM, a koff of 0.000878 s⁻¹ and a kon of 368000 M⁻¹ s⁻¹.
Turning to B19, the affinity, expressed as Kd, was 9.28 nM; the koff came out at 0.0232 s⁻¹; the kon was 2.5e+06 M⁻¹ s⁻¹.
The like results for B20 were, in that order, 1.87 nM, 0.000976 s⁻¹ and 522000 M⁻¹ s⁻¹.
For B21, binding was characterised by a dissociation constant (Kd) of 0.195 nM, the koff came out at 0.000157 s⁻¹ and the kon amounted to 808000 M⁻¹ s⁻¹.
For the molecule B22, binding was put at a Kd of 59.2 nM, the koff turned out to be 0.0277 s⁻¹ and the kon is 469000 M⁻¹ s⁻¹.
B23 gave a Kd of 3.09 nM, a koff of 0.0071 s⁻¹ and a kon of 2.3e+06 M⁻¹ s⁻¹.
Taken in the same sequence, the figures for B24 were 8.08 nM, 0.00443 s⁻¹ and 548000 M⁻¹ s⁻¹.
As for B25, the Kd was found to be 0.44 nM.

The Kd is the free concentration of one partner at which half of the binding sites on the other are occupied at equilibrium, for simple one-to-one binding. Higher therefore signals weaker binding. Usually koff stands for the first-order rate constant of dissociation. Usually kon stands for the second-order rate constant of association. Low readings indicate slow association, high ones fast association.
